Substitutions are numbered along the chain they refer to.
T1: human EphA3 extracellular region-SEAP-His protein (human, UniProt P29320 21-541)
T1 construct: extracellular domain; also called hEphA3-SEAP-His
T1 sequence (looked up): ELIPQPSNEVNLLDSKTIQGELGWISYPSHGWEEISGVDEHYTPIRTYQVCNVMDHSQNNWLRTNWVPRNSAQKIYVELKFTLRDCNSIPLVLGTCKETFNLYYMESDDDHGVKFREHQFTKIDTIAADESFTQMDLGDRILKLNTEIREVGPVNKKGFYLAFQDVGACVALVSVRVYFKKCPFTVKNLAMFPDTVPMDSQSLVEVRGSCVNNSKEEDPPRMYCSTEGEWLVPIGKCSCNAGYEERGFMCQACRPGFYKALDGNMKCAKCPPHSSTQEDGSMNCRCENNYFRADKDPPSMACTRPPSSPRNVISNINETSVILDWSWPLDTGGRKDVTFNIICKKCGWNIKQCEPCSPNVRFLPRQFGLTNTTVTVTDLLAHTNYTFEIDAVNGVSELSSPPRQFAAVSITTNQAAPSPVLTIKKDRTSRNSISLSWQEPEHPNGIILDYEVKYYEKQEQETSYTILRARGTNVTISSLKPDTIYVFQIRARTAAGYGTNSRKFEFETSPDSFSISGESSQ

T2: human EphA8 extracellular region-SEAP-His protein (human, UniProt P29322 28-542)
T2 construct: extracellular domain; also called hEphA8-SEAP-His
T2 sequence (looked up): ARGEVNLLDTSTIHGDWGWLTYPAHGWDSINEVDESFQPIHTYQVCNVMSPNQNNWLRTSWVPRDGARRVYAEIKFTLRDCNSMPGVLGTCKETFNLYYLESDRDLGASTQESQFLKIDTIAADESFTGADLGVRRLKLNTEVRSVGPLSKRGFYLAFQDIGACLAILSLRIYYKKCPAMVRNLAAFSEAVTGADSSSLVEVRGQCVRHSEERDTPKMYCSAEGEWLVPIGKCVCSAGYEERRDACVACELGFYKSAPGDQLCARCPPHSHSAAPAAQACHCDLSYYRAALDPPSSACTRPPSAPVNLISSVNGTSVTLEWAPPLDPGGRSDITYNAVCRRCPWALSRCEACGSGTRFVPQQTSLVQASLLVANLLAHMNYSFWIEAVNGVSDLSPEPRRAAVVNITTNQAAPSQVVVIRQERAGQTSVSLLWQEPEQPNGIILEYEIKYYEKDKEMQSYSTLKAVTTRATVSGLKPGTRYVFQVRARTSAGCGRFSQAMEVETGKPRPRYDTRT

T3: human EphB2 extracellular region-SEAP-His protein (human, UniProt P29323 19-543)
T3 construct: extracellular domain; also called hEphB2-SEAP-His
T3 sequence (looked up): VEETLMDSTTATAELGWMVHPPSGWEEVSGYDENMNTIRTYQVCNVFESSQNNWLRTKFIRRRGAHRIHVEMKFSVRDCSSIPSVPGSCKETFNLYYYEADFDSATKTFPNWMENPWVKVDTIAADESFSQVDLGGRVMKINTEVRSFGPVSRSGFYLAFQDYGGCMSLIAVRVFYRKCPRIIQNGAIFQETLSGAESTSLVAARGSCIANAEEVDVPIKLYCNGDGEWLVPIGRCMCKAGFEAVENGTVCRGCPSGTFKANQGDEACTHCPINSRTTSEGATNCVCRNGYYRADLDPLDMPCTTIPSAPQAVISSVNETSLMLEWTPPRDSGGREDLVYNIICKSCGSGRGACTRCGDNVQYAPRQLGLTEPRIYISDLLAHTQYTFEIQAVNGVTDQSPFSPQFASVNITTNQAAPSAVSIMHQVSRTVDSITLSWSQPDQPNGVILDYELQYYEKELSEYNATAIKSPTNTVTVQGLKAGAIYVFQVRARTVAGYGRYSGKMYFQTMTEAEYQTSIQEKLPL

B1: humanized antibody No. 73 (antibody, human IgG1, kappa)
heavy: QIQLVQSGSELKKPGASVKVSCKASGYTFTDYSMHWVRQAPGQGLKWMGWINTETGEPTYADDFKGRFVFSLDTSVSTAYLQISSLKAEDTAVYYCARIPLYYYGSRYWYFDVWGQGTTVTVSSASTKGPSVFPLAPSSKSTSGGTAALGCLVKDYFPEPVTVSWNSGALTSGVHTFPAVLQSSGLYSLSSVVTVPSSSLGTQTYICNVNHKPSNTKVDKRVEPKSCDKTHTCPPCPAPPAAAPSVFLFPPKPKDTLMISRTPEVTCVVVDVSHEDPEVQFNWYVDGVEVHNAKTKPREEQFNSTFRVVSVLTVVHQDWLNGKEYKCKVSNKGLPAPIEKTISKTKGQPREPQVYTLPPSREEMTKNQVSLTCLVKGFYPSDIAVEWESNGQPENNYKTTPPMLDSDGSFFLYSKLTVDKSRWQQGNVFSCSVMHEALHNHYTQKSLSLSPG
light: EIVMTQSPATLSVSPGERATLSCRASENIYRNLAWYQQKPGQSPRLLIYAATNLADGIPARFSGSGSGTEYTLTISSLQSEDFAVYYCQHFWGTPWTFGQGTKVEIKRTVAAPSVFIFPPSDEQLKSGTASVVCLLNNFYPREAKVQWKVDNALQSGNSQESVTEQDSKDSTYSLSSTLTLSKADYEKHKVYACEVTHQGLSSPVTKSFNRGEC
notes: human Ig kappa; also called L2-4/HK4
B2: humanized antibody No. 93 (antibody, human IgG1, kappa)
heavy: B1 heavy with I2V, K46E, D62Q, D63G, K65T
light: B1 light
notes: human Ig kappa; also called L2-4/HA1
B3: humanized antibody No. 95 (antibody, human IgG1, kappa)
heavy: B1 heavy with I2V, K46E
light: B1 light
notes: human Ig kappa; also called L2-4/HK1
B4: humanized antibody No. 96 (antibody, human IgG1, kappa)
heavy: B1 heavy with I2V
light: B1 light
notes: human Ig kappa; also called L2-4/HK2

Columns and labels:
Test in all cases: ELISA
[1] = target: T1, human EphA3 extracellular …
[2] = target: T2, human EphA8 extracellular …
[3] = target: T3, human EphB2 extracellular …

Row | Binder | A450 as % of hEphA4-SEAP-His [1] [%] | A450 as % of hEphA4-SEAP-His [2] [%] | A450 as % of hEphA4-SEAP-His [3] [%]
1 | B1 | 5.8 | 5.8 | 5.6
2 | B2 | 5.1 | 5 | 5
3 | B3 | 4.8 | 4.4 | 4.7
4 | B4 | 5.5 | 5.4 | 5.5

From patent US20190077860A1 (EISAI R AND D MANAGEMENT, published 2019)
